# B1: SCN4A, P35499 (peptide)
# chain: VRPGVKESLV
# B2: ADAM17, P78536 (peptide)
# chain: NRVDSKETEC
# Molecular target: T1, ARHGEF11, O15085
# T1 sequence (O15085 42-136, limits assumed, looked up): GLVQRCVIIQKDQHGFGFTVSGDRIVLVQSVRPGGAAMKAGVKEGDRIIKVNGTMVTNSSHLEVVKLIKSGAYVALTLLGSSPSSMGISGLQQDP
# Assay: holdup assay
# Set-up: key: below the threshold = too weak to quantify, mostly under pKd 3.1 to 4
# Conditions: plain residues with an end cap or a label only (N-terminal biotin on a linker: ado-ado)
row,Binder,pKd
1,B1,below the threshold
2,B2,3.59

# Molecular target: T2, CARD11, Q9BXL7
# T2 sequence (Q9BXL7 662-765, limits assumed, looked up): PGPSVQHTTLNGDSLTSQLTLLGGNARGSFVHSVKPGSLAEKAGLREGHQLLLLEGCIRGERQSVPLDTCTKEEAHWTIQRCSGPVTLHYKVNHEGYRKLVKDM
# Assay: holdup assay
# Set-up: key: below the threshold = too weak to quantify, mostly under pKd 3.1 to 4
# Conditions: plain residues with an end cap or a label only (N-terminal biotin on a linker: ado-ado)
row,Binder,pKd
1,B1,below the threshold
2,B2,below the threshold

# Molecular target: DLG5_1, Q8TDM6
# Sequence (Q8TDM6 617-713): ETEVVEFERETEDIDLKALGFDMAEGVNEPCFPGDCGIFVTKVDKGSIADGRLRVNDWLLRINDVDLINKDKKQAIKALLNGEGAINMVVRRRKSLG
# Assay: holdup assay
# Set-up: key: below the threshold = too weak to quantify, mostly under pKd 3.1 to 4
# Conditions: plain residues with an end cap or a label only (N-terminal biotin on a linker: ado-ado)
row,Binder,pKd
1,B1,below the threshold
2,B2,below the threshold

# Molecular target: T3, DVL3, Q92997
# T3 sequence (Q92997 244-331, limits assumed, looked up): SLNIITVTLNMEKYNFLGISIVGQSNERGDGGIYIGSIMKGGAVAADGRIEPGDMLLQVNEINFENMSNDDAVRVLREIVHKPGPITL
# Assay: holdup assay
# Set-up: key: below the threshold = too weak to quantify, mostly under pKd 3.1 to 4
# Conditions: plain residues with an end cap or a label only (N-terminal biotin on a linker: ado-ado)
row,Binder,pKd
1,B1,below the threshold
2,B2,below the threshold

# Molecular target: GIPC2, Q8TF65
# Sequence (Q8TF65 112-203): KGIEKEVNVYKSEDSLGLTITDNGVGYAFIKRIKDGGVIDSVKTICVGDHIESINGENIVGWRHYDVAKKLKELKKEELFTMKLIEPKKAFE
# Assay: holdup assay
# Set-up: key: below the threshold = too weak to quantify, mostly under pKd 3.1 to 4
# Conditions: plain residues with an end cap or a label only (N-terminal biotin on a linker: ado-ado)
row,Binder,pKd
1,B1,below the threshold
2,B2,4.27

# Molecular target: GRASP, Q7Z6J2
# Sequence (Q7Z6J2 96-193): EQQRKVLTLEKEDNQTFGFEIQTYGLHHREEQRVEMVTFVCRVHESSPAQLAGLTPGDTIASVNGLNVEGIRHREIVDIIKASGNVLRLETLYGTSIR
# Assay: holdup assay
# Set-up: key: below the threshold = too weak to quantify, mostly under pKd 3.1 to 4
# Conditions: plain residues with an end cap or a label only (N-terminal biotin on a linker: ado-ado)
row,Binder,pKd
1,B1,below the threshold
2,B2,below the threshold

# Molecular target: T4, GRIP1_3, Q9Y3R0
# T4 sequence (Q9Y3R0 247-346, limits assumed, looked up): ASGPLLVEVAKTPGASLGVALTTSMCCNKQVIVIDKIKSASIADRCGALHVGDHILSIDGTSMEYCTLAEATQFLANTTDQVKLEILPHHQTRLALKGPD
# Assay: holdup assay
# Set-up: key: below the threshold = too weak to quantify, mostly under pKd 3.1 to 4
# Conditions: plain residues with an end cap or a label only (N-terminal biotin on a linker: ado-ado)
row,Binder,pKd
1,B1,below the threshold
2,B2,below the threshold

# Molecular target: T5, GRIP1_7, Q9Y3R0
# T5 sequence (Q9Y3R0 999-1096, limits assumed, looked up): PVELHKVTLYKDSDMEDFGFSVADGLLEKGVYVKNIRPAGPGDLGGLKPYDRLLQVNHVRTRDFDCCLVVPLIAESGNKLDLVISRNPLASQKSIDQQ
# Assay: holdup assay
# Set-up: key: below the threshold = too weak to quantify, mostly under pKd 3.1 to 4
# Conditions: plain residues with an end cap or a label only (N-terminal biotin on a linker: ado-ado)
row,Binder,pKd
1,B1,below the threshold
2,B2,below the threshold

# Molecular target: GRIP2_5, Q9C0E4
# Sequence (Q9C0E4 544-642): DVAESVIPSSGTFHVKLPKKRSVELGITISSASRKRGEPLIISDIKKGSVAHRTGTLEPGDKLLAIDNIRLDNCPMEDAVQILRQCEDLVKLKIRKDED
# Assay: holdup assay
# Set-up: key: below the threshold = too weak to quantify, mostly under pKd 3.1 to 4
# Conditions: plain residues with an end cap or a label only (N-terminal biotin on a linker: ado-ado)
row,Binder,pKd
1,B1,below the threshold
2,B2,below the threshold

# Molecular target: T6, HTRA3, P83110
# T6 sequence (P83110 354-453, limits assumed, looked up): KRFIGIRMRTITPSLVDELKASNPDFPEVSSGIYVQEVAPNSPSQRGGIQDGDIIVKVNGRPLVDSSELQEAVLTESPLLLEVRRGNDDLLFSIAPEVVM
# Assay: holdup assay
# Set-up: key: below the threshold = too weak to quantify, mostly under pKd 3.1 to 4
# Conditions: plain residues with an end cap or a label only (N-terminal biotin on a linker: ado-ado)
row,Binder,pKd
1,B1,below the threshold
2,B2,3.65

# Molecular target: IL16_1, Q14005
# Sequence (Q14005 210-306): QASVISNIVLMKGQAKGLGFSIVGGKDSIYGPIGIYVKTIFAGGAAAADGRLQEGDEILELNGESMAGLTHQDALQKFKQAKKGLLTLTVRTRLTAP
# Assay: holdup assay
# Set-up: key: below the threshold = too weak to quantify, mostly under pKd 3.1 to 4
# Conditions: plain residues with an end cap or a label only (N-terminal biotin on a linker: ado-ado)
row,Binder,pKd
1,B1,4.78
2,B2,below the threshold

# Molecular target: Inadl_10, Q8NI35
# Sequence (Q8NI35 1673-1763): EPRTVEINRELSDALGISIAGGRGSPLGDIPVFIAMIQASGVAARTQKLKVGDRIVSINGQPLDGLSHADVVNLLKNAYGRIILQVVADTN
# Assay: holdup assay
# Set-up: key: below the threshold = too weak to quantify, mostly under pKd 3.1 to 4
# Conditions: plain residues with an end cap or a label only (N-terminal biotin on a linker: ado-ado)
row,Binder,pKd
1,B1,below the threshold
2,B2,below the threshold

# Molecular target: LDB3, O75112
# Sequence (O75112 1-94): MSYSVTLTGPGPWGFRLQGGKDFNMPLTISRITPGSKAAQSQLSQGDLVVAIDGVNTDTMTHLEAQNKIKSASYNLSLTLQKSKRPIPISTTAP
# Assay: holdup assay
# Set-up: key: below the threshold = too weak to quantify, mostly under pKd 3.1 to 4
# Conditions: plain residues with an end cap or a label only (N-terminal biotin on a linker: ado-ado)
row,Binder,pKd
1,B1,below the threshold
2,B2,below the threshold

# Molecular target: LNX1_1, Q8TBB1
# Sequence (Q8TBB1 261-371): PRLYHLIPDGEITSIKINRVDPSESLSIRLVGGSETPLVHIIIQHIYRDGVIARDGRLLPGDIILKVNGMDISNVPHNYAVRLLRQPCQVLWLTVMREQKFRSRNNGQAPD
# Assay: holdup assay
# Set-up: key: below the threshold = too weak to quantify, mostly under pKd 3.1 to 4
# Conditions: plain residues with an end cap or a label only (N-terminal biotin on a linker: ado-ado)
row,Binder,pKd
1,B1,3.89
2,B2,below the threshold

# Molecular target: LNX1_3, Q8TBB1
# Sequence (Q8TBB1 500-596): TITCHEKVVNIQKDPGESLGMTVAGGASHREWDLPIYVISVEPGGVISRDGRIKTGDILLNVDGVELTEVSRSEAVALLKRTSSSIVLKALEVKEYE
# Assay: holdup assay
# Set-up: key: below the threshold = too weak to quantify, mostly under pKd 3.1 to 4
# Conditions: plain residues with an end cap or a label only (N-terminal biotin on a linker: ado-ado)
row,Binder,pKd
1,B1,below the threshold
2,B2,below the threshold

# Molecular target: T7, LNX2_3, Q8N448
# T7 sequence (Q8N448 463-564, limits assumed, looked up): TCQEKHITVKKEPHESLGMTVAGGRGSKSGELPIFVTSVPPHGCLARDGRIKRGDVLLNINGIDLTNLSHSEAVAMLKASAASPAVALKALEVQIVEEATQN
# Assay: holdup assay
# Set-up: key: below the threshold = too weak to quantify, mostly under pKd 3.1 to 4
# Conditions: plain residues with an end cap or a label only (N-terminal biotin on a linker: ado-ado)
row,Binder,pKd
1,B1,below the threshold
2,B2,below the threshold

# Molecular target: T8, LRRC7, Q96NW7
# T8 sequence (Q96NW7 1440-1537, limits assumed, looked up): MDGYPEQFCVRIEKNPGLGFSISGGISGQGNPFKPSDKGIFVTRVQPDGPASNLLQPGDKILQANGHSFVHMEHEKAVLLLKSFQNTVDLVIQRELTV
# Assay: holdup assay
# Set-up: key: below the threshold = too weak to quantify, mostly under pKd 3.1 to 4
# Conditions: plain residues with an end cap or a label only (N-terminal biotin on a linker: ado-ado)
row,Binder,pKd
1,B1,4.02
2,B2,below the threshold

# Molecular target: MAGI1_2, Q96QZ7
# Sequence (Q96QZ7 456-580): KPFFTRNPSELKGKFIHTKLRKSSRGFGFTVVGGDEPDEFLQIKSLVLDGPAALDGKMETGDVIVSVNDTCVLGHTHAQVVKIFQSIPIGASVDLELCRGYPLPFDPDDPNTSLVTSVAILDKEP
# Assay: holdup assay
# Set-up: key: below the threshold = too weak to quantify, mostly under pKd 3.1 to 4
# Conditions: plain residues with an end cap or a label only (N-terminal biotin on a linker: ado-ado)
row,Binder,pKd
1,B1,4.6
2,B2,below the threshold

# Molecular target: MAGI2_3, Q86UL8
# Sequence (Q86UL8 600-682): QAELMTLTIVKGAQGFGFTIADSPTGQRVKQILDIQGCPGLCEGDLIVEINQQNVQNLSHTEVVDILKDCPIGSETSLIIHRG
# Assay: holdup assay
# Set-up: key: below the threshold = too weak to quantify, mostly under pKd 3.1 to 4
# Conditions: plain residues with an end cap or a label only (N-terminal biotin on a linker: ado-ado)
row,Binder,pKd
1,B1,4.51
2,B2,3.64

# Molecular target: T9, MPDZ_12, O75970
# T9 sequence (O75970 1857-1958, limits assumed, looked up): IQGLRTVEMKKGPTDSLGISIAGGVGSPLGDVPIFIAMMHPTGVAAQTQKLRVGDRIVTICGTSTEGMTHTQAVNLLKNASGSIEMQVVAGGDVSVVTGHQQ
# Assay: holdup assay
# Set-up: key: below the threshold = too weak to quantify, mostly under pKd 3.1 to 4
# Conditions: plain residues with an end cap or a label only (N-terminal biotin on a linker: ado-ado)
row,Binder,pKd
1,B1,below the threshold
2,B2,below the threshold

# Molecular target: NHERF4_1, Q86UT5-2
# Sequence (Q86UT5 other isoform, or with tags, fused parts or gaps): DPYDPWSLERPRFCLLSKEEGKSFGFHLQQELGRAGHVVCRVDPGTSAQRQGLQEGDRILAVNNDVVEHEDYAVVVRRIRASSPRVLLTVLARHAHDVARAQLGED
# Assay: holdup assay
# Set-up: key: below the threshold = too weak to quantify, mostly under pKd 3.1 to 4
# Conditions: plain residues with an end cap or a label only (N-terminal biotin on a linker: ado-ado)
row,Binder,pKd
1,B1,3.76
2,B2,3.68

# Molecular target: NHERF4_2, Q86UT5
# Sequence (Q86UT5 220-308): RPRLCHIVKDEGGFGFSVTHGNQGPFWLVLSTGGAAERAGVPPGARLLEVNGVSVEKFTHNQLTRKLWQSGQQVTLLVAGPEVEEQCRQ
# Assay: holdup assay
# Set-up: key: below the threshold = too weak to quantify, mostly under pKd 3.1 to 4
# Conditions: plain residues with an end cap or a label only (N-terminal biotin on a linker: ado-ado)
row,Binder,pKd
1,B1,below the threshold
2,B2,below the threshold

# Molecular target: NHERF4_4, Q86UT5
# Sequence (Q86UT5 464-550): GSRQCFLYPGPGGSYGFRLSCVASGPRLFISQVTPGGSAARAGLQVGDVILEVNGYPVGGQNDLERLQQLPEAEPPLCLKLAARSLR
# Assay: holdup assay
# Set-up: key: below the threshold = too weak to quantify, mostly under pKd 3.1 to 4
# Conditions: plain residues with an end cap or a label only (N-terminal biotin on a linker: ado-ado)
row,Binder,pKd
1,B1,3.96
2,B2,below the threshold

# Molecular target: PDZRN4_1, Q6ZMN7
# Sequence (Q6ZMN7 213-318): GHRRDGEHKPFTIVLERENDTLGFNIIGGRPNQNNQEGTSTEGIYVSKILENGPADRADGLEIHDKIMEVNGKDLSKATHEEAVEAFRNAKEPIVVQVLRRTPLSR
# Assay: holdup assay
# Set-up: key: below the threshold = too weak to quantify, mostly under pKd 3.1 to 4
# Conditions: plain residues with an end cap or a label only (N-terminal biotin on a linker: ado-ado)
row,Binder,pKd
1,B1,4.25
2,B2,below the threshold

# Molecular target: T10, RHPN1, Q8TCX5
# T10 sequence (Q8TCX5 508-602, limits assumed, looked up): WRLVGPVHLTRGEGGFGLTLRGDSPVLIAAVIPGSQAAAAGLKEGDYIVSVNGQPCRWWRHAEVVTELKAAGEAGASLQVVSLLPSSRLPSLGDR
# Assay: holdup assay
# Set-up: key: below the threshold = too weak to quantify, mostly under pKd 3.1 to 4
# Conditions: plain residues with an end cap or a label only (N-terminal biotin on a linker: ado-ado)
row,Binder,pKd
1,B1,4.33
2,B2,below the threshold

# Molecular target: SCRIB_1, Q14160
# Sequence (Q14160 718-814): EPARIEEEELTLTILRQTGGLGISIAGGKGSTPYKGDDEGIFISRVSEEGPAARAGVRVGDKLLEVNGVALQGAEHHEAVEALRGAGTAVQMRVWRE
# Assay: holdup assay
# Set-up: key: below the threshold = too weak to quantify, mostly under pKd 3.1 to 4
# Conditions: plain residues with an end cap or a label only (N-terminal biotin on a linker: ado-ado)
row,Binder,pKd
1,B1,4.48
2,B2,4.49

# Molecular target: TJP1_2, Q07157
# Sequence (Q07157 181-274): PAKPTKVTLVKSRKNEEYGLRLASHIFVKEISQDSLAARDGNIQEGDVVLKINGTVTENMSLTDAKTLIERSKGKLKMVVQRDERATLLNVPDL
# Assay: holdup assay
# Set-up: key: below the threshold = too weak to quantify, mostly under pKd 3.1 to 4
# Conditions: plain residues with an end cap or a label only (N-terminal biotin on a linker: ado-ado)
row,Binder,pKd
1,B1,below the threshold
2,B2,below the threshold

# Molecular target: TJP1_3, Q07157
# Sequence (Q07157 416-512): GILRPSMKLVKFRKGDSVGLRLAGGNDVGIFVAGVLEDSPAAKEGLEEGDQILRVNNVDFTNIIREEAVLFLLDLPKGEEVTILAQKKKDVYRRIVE
# Assay: holdup assay
# Set-up: key: below the threshold = too weak to quantify, mostly under pKd 3.1 to 4
# Conditions: plain residues with an end cap or a label only (N-terminal biotin on a linker: ado-ado)
row,Binder,pKd
1,B1,below the threshold
2,B2,below the threshold

# — PMC9482650, “Quantitative fragmentomics allow affinity mapping of interactomes” (Nature Communications, 2022)
